The source of these data is patent publication US20240392004A1 (IMMUNOWAKE, published 2024).

Assay [1] addresses T1, mouse PD-1 (mouse, UniProt Q02242 25-167, limits assumed).
T1 construct: also called mPD-1
T1 sequence (looked up): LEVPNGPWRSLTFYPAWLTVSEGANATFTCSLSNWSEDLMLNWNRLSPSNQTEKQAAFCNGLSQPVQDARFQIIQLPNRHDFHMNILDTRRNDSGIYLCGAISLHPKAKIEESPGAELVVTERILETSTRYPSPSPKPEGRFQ
Kind of assay: PD-L2-Fc format, calibrated on PD-L2(wt)-Fc, method not stated.

Assay [2] deals with T2, human PD-1 (human, UniProt Q15116 25-167, limits assumed).
T2 construct: also called hPD-1
T2 sequence (Q15116 25-167 limits assumed): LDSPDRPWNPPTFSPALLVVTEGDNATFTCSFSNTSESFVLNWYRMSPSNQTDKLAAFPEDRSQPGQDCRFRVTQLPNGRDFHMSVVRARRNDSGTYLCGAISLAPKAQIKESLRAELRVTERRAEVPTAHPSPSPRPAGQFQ
The description is as above.

Assay [3] deals with human PD-1 on cells (HEK-PD-1 reporter cells; activated PBMC) (human, UniProt Q15116 25-288). The experiment in a line: cell-based or functional assay.
Chain of human PD-1 on cells (HEK-PD-1 reporter cells; activated PBMC) (Q15116 25-288): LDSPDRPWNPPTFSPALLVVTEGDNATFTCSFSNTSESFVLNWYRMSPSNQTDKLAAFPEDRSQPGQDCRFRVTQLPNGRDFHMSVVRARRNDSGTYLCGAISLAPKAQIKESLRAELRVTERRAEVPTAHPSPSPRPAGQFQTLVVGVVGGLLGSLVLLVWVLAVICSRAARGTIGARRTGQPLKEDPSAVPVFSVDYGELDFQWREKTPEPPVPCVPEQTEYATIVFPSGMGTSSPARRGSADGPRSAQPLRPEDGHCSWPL
For assay [4], the target named is human IL-12 receptor complex (IL-12Rβ1 and IL-12Rβ2) (human, UniProt P42701 24-662; Q99665 24-862). Kind of assay: cell-based or functional assay.
Chain of human IL-12 receptor complex (IL-12Rβ1 and IL-12Rβ2) (Q99665 24-862, chain 2 of 2, other chains not shown): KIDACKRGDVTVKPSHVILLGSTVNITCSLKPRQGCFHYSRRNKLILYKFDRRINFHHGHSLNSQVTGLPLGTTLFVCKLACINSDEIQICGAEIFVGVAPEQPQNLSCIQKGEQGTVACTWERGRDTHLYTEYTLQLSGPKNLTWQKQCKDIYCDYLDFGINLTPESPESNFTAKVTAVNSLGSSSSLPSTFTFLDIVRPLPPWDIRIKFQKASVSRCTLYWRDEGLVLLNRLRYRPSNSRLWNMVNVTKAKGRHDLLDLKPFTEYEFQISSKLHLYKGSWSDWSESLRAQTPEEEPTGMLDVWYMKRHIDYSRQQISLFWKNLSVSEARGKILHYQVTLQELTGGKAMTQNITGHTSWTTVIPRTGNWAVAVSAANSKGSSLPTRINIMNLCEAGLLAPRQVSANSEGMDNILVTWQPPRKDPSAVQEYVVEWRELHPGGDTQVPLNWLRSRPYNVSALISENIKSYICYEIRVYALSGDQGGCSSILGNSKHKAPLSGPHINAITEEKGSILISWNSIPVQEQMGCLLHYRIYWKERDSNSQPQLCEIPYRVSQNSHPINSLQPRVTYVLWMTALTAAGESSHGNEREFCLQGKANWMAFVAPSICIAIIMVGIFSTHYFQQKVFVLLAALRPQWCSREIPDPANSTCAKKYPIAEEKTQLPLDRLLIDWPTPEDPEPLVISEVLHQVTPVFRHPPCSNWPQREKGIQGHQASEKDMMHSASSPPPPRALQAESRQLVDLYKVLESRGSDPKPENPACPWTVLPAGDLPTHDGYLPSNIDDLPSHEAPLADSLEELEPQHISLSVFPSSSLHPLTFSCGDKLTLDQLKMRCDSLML
In assay [5] the target is T2, human PD-1. The experiment in a line: same value as Table 11 (measured on the antibody without IL-12).

B1: PD-L2(mut1)-Fc, T56V (Fc fusion)
chain 1: LFTVTVPKELYIIEHGSNVTLECNFDTGSHVNLGAIVASLQKVENDTSPHRERATLLEEQLPLGKASFHIPQVQVRDEGQYQCIIIYGVAWDYKYLTLKVKASYRKINTHILKVPETDEVELTCQATGYPLAEVSWPNVSVPANTSHSRTPEGLYQVTSVLRLKPPPGRNFSCVFWNTHVRELTLASIDLQSQMEPRTHPTDKTHTCPPCPAPEDEGGPSVFLFPPKPKDTLMISRTPEVTCVVVDVSHEDPEVKFNWYVDGVEVHNAKTKPREEQYNSTYRVVSVLTVLHQDWLNGKEYKCKVSNKALPAPIEKTISKAKGQPREPQVYVYPPSREEMTKNQVSLTCLVKGFYPSDIAVEWESNGQPENNYKTTPPVLDEDGSFALVSKLTVDKSRWQQGNVFSCSVMHEALHNHYTQKSLSLSPGK
chain 2: LFTVTVPKELYIIEHGSNVTLECNFDTGSHVNLGAIVASLQKVENDTSPHRERATLLEEQLPLGKASFHIPQVQVRDEGQYQCIIIYGVAWDYKYLTLKVKASYRKINTHILKVPETDEVELTCQATGYPLAEVSWPNVSVPANTSHSRTPEGLYQVTSVLRLKPPPGRNFSCVFWNTHVRELTLASIDLQSQMEPRTHPTDKTHTCPPCPAPEKKGGPSVFLFPPKPKDTLMISRTPEVTCVVVDVSHEDPEVKFNWYVDGVEVHNAKTKPREEQYNSTYRVVSVLTVLHQDWLNGKEYKCKVSNKALPAPIEKTISKAKGQPREPQVYVLPPSREEMTKNQVSLLCLVKGFYPSDIAVEWESNGQPENRYMTWPPVLDSDGSFFLYSKLTVDKSRWQQGNVFSCSVMHEALHNHYTQKSLSLSPGK
With B1, the values for the Kd in assay [1] and in assay [2] were 430 nM and 520 nM, respectively.

B2: PD-L2(mut3)-Fc, Q60L (Fc fusion)
chain 1: LFTVTVPKELYIIEHGSNVTLECNFDTGSHVNLGAITASLLKVENDTSPHRERATLLEEQLPLGKASFHIPQVQVRDEGQYQCIIIYGVAWDYKYLTLKVKASYRKINTHILKVPETDEVELTCQATGYPLAEVSWPNVSVPANTSHSRTPEGLYQVTSVLRLKPPPGRNFSCVFWNTHVRELTLASIDLQSQMEPRTHPTDKTHTCPPCPAPEDEGGPSVFLFPPKPKDTLMISRTPEVTCVVVDVSHEDPEVKFNWYVDGVEVHNAKTKPREEQYNSTYRVVSVLTVLHQDWLNGKEYKCKVSNKALPAPIEKTISKAKGQPREPQVYVYPPSREEMTKNQVSLTCLVKGFYPSDIAVEWESNGQPENNYKTTPPVLDEDGSFALVSKLTVDKSRWQQGNVFSCSVMHEALHNHYTQKSLSLSPGK
chain 2: LFTVTVPKELYIIEHGSNVTLECNFDTGSHVNLGAITASLLKVENDTSPHRERATLLEEQLPLGKASFHIPQVQVRDEGQYQCIIIYGVAWDYKYLTLKVKASYRKINTHILKVPETDEVELTCQATGYPLAEVSWPNVSVPANTSHSRTPEGLYQVTSVLRLKPPPGRNFSCVFWNTHVRELTLASIDLQSQMEPRTHPTDKTHTCPPCPAPEKKGGPSVFLFPPKPKDTLMISRTPEVTCVVVDVSHEDPEVKFNWYVDGVEVHNAKTKPREEQYNSTYRVVSVLTVLHQDWLNGKEYKCKVSNKALPAPIEKTISKAKGQPREPQVYVLPPSREEMTKNQVSLLCLVKGFYPSDIAVEWESNGQPENRYMTWPPVLDSDGSFFLYSKLTVDKSRWQQGNVFSCSVMHEALHNHYTQKSLSLSPGK
With B2, the Kd in assay [1] came to 320 nM; in assay [2], 490 nM.

B3: IL-12(E59A/F60A)/anti-PD-1(D100G) (antibody)
light: not shown
heavy: QVQLVESGGGVVQPGRSLRLDCKASGITFSNSGMHWVRQAPGKGLEWVAVIWYDGSKRYYADSVKGRFTISRDNSKNTLFLQMNSLRAEDTAVYYCATNGDYWGQGTLVTVSSASTKGPSVFPLAPSSKSTSGGTAALGCLVKDYFPEPVTVSWNSGALTSGVHTFPAVLQSSGLYSLSSVVTVPSSSLGTQTYICNVNHKPSNTKVDKKVEPKSCDKPGSGIWELKKDVYVVELDWYPDAPGEMVVLTCDTPEEDGITWTLDQSSEVLGSGKTLTIQVKAAGDAGQYTCHKGGEVLSHSLLLLHKKEDGIWSTDILKDQKEPKNKTFLRCEAKNYSGRFTCWWLTTISTDLTFSVKSSRGSSDPQGVTCGAATLSAERVRGDNKEYEYSVECQEDSACPAAEESLPIEVMVDAVHKLKYENYTSSFFIRDIIKPDPPKNLQLKPLKNSRQVEVSWEYPDTWSTPHSYFSLTFCVQVQGKSKREKKDRVFTDKTSATVICRKNASISVRAQDRYYSSSWSEWASVPCSGGGGSGGGGSGGGGSGGGGSGRNLPVATPDPGMFPCLHHSQNLLRAVSNMLQKARQTLEFYPCTSEEIDHEDITKDKTSTVEACLPLELTKNESCLNSRETSFITNGSCLASRKTSFMMALCLSSIYEDLKMYQVEFKTMNAKLLMDPKRQIFLDQNMLAVIDELMQALNFNSETVPQKSSLEEPDFYKTKIKLCILLHAFRIRAVTIDRVMSYLNASDKTHTCPPCPAPEDEGGPSVFLFPPKPKDTLMISRTPEVTCVVVDVSHEDPEVKFNWYVDGVEVHNAKTKPREEQYNSTYRVVSVLTVLHQDWLNGKEYKCKVSNKALPAPIEKTISKAKGQPREPQVYVYPPSREEMTKNQVSLTCLVKGFYPSDIAVEWESNGQPENNYKTTPPVLDEDGSFALVSKLTVDKSRWQQGNVFSCSVMHEALHNHYTQKSLSLSPGK
heavy (part 1 of 2): QVQLVESGGGVVQPGRSLRLDCKASGITFSNSGMHWVRQAPGKGLEWVAVIWYDGSKRYYADSVKGRFTISRDNSKNTLFLQMNSLRAEDTAVYYCATNGDYWGQGTLVTVSSAS
heavy (part 2 of 2): EPKSCDKTHTCPPCPAPEKKGGPSVFLFPPKPKDTLMISRTPEVTCVVVDVSHEDPEVKFNWYVDGVEVHNAKTKPREEQYNSTYRVVSVLTVLHQDWLNGKEYKCKVSNKALPAPIEKTISKAKGQPREPQVYVLPPSREEMTKNQVSLLCLVKGFYPSDIAVEWESNGQPENRYMTWPPVLDSDGSFFLYSKLTVDKSRWQQGNVFSCSVMHEALHNHYTQKSLSLSPGK
Turning to B3, in assay [3], the “IFN-γ release, activated PBMC” value turned out to be 120 ng/mL; the “IL-12 signal transduction, HEK-IL-12-PD-1 (high)” value is 33%; the “IL-12 signal transduction, HEK-IL-12-PD-1 (low)” value was determined as 17%. Also, in assay [4], the “IL-12 signal transduction, HEK IL-12” value was less than 0.2%. The molecule further returned a Kd in assay [5] of 130 nM.

B4: IL-12(E59A/F60A)/anti-PD-1(N99G) (antibody)
light: not shown
heavy: not shown
heavy (part 1 of 2): QVQLVESGGGVVQPGRSLRLDCKASGITFSNSGMHWVRQAPGKGLEWVAVIWYDGSKRYYADSVKGRFTISRDNSKNTLFLQMNSLRAEDTAVYYCATGDDYWGQGTLVTVSSAS
heavy (part 2 of 2): EPKSCDKTHTCPPCPAPEKKGGPSVFLFPPKPKDTLMISRTPEVTCVVVDVSHEDPEVKFNWYVDGVEVHNAKTKPREEQYNSTYRVVSVLTVLHQDWLNGKEYKCKVSNKALPAPIEKTISKAKGQPREPQVYVLPPSREEMTKNQVSLLCLVKGFYPSDIAVEWESNGQPENRYMTWPPVLDSDGSFFLYSKLTVDKSRWQQGNVFSCSVMHEALHNHYTQKSLSLSPGK
B4: in assay [3], the “IFN-γ release, activated PBMC” value came to 34 ng/mL; the “IL-12 signal transduction, HEK-IL-12-PD-1 (high)” value is 5%; the “IL-12 signal transduction, HEK-IL-12-PD-1 (low)” value was less than 0.2%. Moreover, the “IL-12 signal transduction, HEK IL-12” value in assay [4] was less than 0.2%. In addition, binding in assay [5] was put at a Kd of 2300 nM.

B5: IL-12(E59A/F60A)/anti-PD-1(D100R) (antibody)
light: not shown
heavy: QVQLVESGGGVVQPGRSLRLDCKASGITFSNSGMHWVRQAPGKGLEWVAVIWYDGSKRYYADSVKGRFTISRDNSKNTLFLQMNSLRAEDTAVYYCATNRDYWGQGTLVTVSSASTKGPSVFPLAPSSKSTSGGTAALGCLVKDYFPEPVTVSWNSGALTSGVHTFPAVLQSSGLYSLSSVVTVPSSSLGTQTYICNVNHKPSNTKVDKKVEPKSCDKPGSGIWELKKDVYVVELDWYPDAPGEMVVLTCDTPEEDGITWTLDQSSEVLGSGKTLTIQVKAAGDAGQYTCHKGGEVLSHSLLLLHKKEDGIWSTDILKDQKEPKNKTFLRCEAKNYSGRFTCWWLTTISTDLTFSVKSSRGSSDPQGVTCGAATLSAERVRGDNKEYEYSVECQEDSACPAAEESLPIEVMVDAVHKLKYENYTSSFFIRDIIKPDPPKNLQLKPLKNSRQVEVSWEYPDTWSTPHSYFSLTFCVQVQGKSKREKKDRVFTDKTSATVICRKNASISVRAQDRYYSSSWSEWASVPCSGGGGSGGGGSGGGGSGGGGSGRNLPVATPDPGMFPCLHHSQNLLRAVSNMLQKARQTLEFYPCTSEEIDHEDITKDKTSTVEACLPLELTKNESCLNSRETSFITNGSCLASRKTSFMMALCLSSIYEDLKMYQVEFKTMNAKLLMDPKRQIFLDQNMLAVIDELMQALNFNSETVPQKSSLEEPDFYKTKIKLCILLHAFRIRAVTIDRVMSYLNASDKTHTCPPCPAPEDEGGPSVFLFPPKPKDTLMISRTPEVTCVVVDVSHEDPEVKFNWYVDGVEVHNAKTKPREEQYNSTYRVVSVLTVLHQDWLNGKEYKCKVSNKALPAPIEKTISKAKGQPREPQVYVYPPSREEMTKNQVSLTCLVKGFYPSDIAVEWESNGQPENNYKTTPPVLDEDGSFALVSKLTVDKSRWQQGNVFSCSVMHEALHNHYTQKSLSLSPGK
heavy (part 1 of 2): QVQLVESGGGVVQPGRSLRLDCKASGITFSNSGMHWVRQAPGKGLEWVAVIWYDGSKRYYADSVKGRFTISRDNSKNTLFLQMNSLRAEDTAVYYCATNRDYWGQGTLVTVSSAS
heavy (part 2 of 2): EPKSCDKTHTCPPCPAPEKKGGPSVFLFPPKPKDTLMISRTPEVTCVVVDVSHEDPEVKFNWYVDGVEVHNAKTKPREEQYNSTYRVVSVLTVLHQDWLNGKEYKCKVSNKALPAPIEKTISKAKGQPREPQVYVLPPSREEMTKNQVSLLCLVKGFYPSDIAVEWESNGQPENRYMTWPPVLDSDGSFFLYSKLTVDKSRWQQGNVFSCSVMHEALHNHYTQKSLSLSPGK
Turning to B5, in assay [3], the “IFN-γ release, activated PBMC” value was determined as 69 ng/mL; the “IL-12 signal transduction, HEK-IL-12-PD-1 (high)” value worked out at 10%; the “IL-12 signal transduction, HEK-IL-12-PD-1 (low)” value is 3%. For the same molecule, the “IL-12 signal transduction, HEK IL-12” value in assay [4] is less than 0.2%. Further, the Kd in assay [5] is 910 nM.

Usually Kd stands for the equilibrium constant for the complex coming apart. A lower Kd goes with higher affinity.
